Results: publication PMC10305218, “Expression of β-Glucosidases from the Yak Rumen in Lactic Acid Bacteria: A Genetic Engineering Approach” (Microorganisms, 2023)

Experiments:
[1] = substrate: OCc1ccccc1O[C@@H]1O[C@H](CO)[C@@H](O)[C@H](O)[C@H]1O; assay: DNS reducing sugar assay, Michaelis-Menten / Lineweaver-Burk fit; format: biochemical, Paenibacillus polymyxa; details: 50 °C, pH 7.0, bacterial supernatant
Excerpt: DNS reducing sugar assay, Michaelis-Menten / Lineweaver-Burk fit on BglB

[2] = substrate: OCc1ccccc1O[C@@H]1O[C@H](CO)[C@@H](O)[C@H](O)[C@H]1O; assay: as above; format: biochemical, Paenibacillus polymyxa; details: 50 °C, pH 7.0, bacterial supernatant; remark: listed apart in the source
Excerpt: DNS reducing sugar assay, Michaelis-Menten / Lineweaver-Burk fit on BglA

B1: BglB (Paenibacillus polymyxa) (protein)
chain: NTFIFPATFMWGTSTSSYQIEGGTDEGGRTPSIWDTFCQIPGKVIGGDCGDVACDHFHHFKEDVQLMKQLGFLHYRFSVAWPRIMPAAGIINEEGLLFYEHLLDEIELAGLIPMLTLYHWDLPQWIEDEGGWTQRETIQHFKTYASVIMDRFGERINWWNTINEPYCASILGYGTGEHAPGHENWREAFTAAHHILMCHGIASNLHKEKGLTGKIGITLNMEHVDAASERPEDVAAAIRRDGFINRWFAEPLFNGKYPEDMVEWYGTYLNGLDFVQPGDMELIQQPGDFLGINYYTRSIIRSTNDASLLQVEQVHMEEPVTDMGWEIHPESFYKLLTRIEKDFSKGLPILITENGAAMRDELVNGQIEDTGRHGYIEEHLKACHRFIEEGGQLKGYFVWSFLDNFEWAWGYSKRFGIVHINYETQERTPKQSALWFKQMMAKNGF
notes: amplified from yak rumen metagenomic DNA; usp45 signal peptide, pMG36e, secreted by L. lactis NZ9000; about 55 kDa; gene 1361 bp; supernatant / TCA-acetone precipitate
Km [1]: 43.99 µmol/L | Vmax [1]: 1250 µmol/min/mg | kcat [1]: 349 s⁻¹ | kcat/Km [1]: 7.93e+06 M⁻¹ s⁻¹

B2: BglA (Paenibacillus polymyxa) (protein)
chain: MTIFQFPQDFMWGTATAAYQIEGAYQEDGRGLSIWDTFAHTPGKVFNGDNGNVACDSYHRYEEDIRLMKELGIRTYRFSVSWPRIFPNGDGEVNQEGLDYYHRVVDLLNDNGIEPFCTLYHWDLPQALQDAGGWGNRRTIQAFVQFAETMFREFHGKIQHWLTFNEPWCIAFLSNMLGVHAPGLTNLQTAIDVGHHLLVAHGLSVRRFRELGTSGQIGIAPNVSWAVPYSTSEEDKAACARTISLHSDWFLQPIYQGSYPQFLVDWFAEQGATVPIQDGDMDIIGEPIDMIGINYYSMSVNRFNPEAGFLQSEEINMGLPVTDIGWPVESRGLYEVLHYLQKYGNIDIYITENGACINDEVVNGKVQDDRRISYMQQHLVQVHRTIHDGLHVKGYMAWSLLDNFEWAEGYNMRFGMIHVDFRTQVRTPKESYYWYRNVVSNNWLETRR
notes: as for B1
Km [2]: 38.61 µmol/L | Vmax [2]: 1340 µmol/min/mg | kcat [2]: 435 s⁻¹ | kcat/Km [2]: 1.13e+07 M⁻¹ s⁻¹
